For assay [1], the target named is T1, Core_NIIN-es_KEEK.
T1 chain: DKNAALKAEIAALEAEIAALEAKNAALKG
As to the kind of experiment: two-hybrid library CCmax.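 Note: natural log of median RNA to DNA barcode read ratio; higher means stronger binding.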 The following applies: mean of both orientations.

The target in assay [2] is T2, Core_NNIN-es_KKEK.
T2 chain: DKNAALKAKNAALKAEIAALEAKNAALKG
As to the kind of experiment: two-hybrid library CCmax.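 Note: natural log of median RNA to DNA barcode read ratio; higher means stronger binding.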 The following applies: mean of both orientations.

In assay [3] the target is T3, Core_NNIN-es_KKKE.
T3 chain: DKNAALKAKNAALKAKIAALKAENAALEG
As to the kind of experiment: two-hybrid library CCmax.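 Note: natural log of median RNA to DNA barcode read ratio; higher means stronger binding.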 The following applies: mean of both orientations.

In assay [4] the target is T4, Core_IINN-es_KKEK.
T4 chain: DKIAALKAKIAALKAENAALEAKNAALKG
Nature of the assay: two-hybrid library CCmax.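 Note: natural log of median RNA to DNA barcode read ratio; higher means stronger binding.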 As to conditions: mean of both orientations.

The target in assay [5] is T5, 4H730-bA.
T5 chain: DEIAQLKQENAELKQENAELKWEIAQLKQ
As to the kind of experiment: two-hybrid library CCNG1.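 Note: natural log of median RNA to DNA barcode read ratio; higher means stronger binding.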

Assay [6] concerns the target T6, 4H2143-bA.
T6 chain: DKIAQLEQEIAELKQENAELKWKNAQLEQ
Nature of the assay: two-hybrid library CCNG1.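 Note: natural log of median RNA to DNA barcode read ratio; higher means stronger binding.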

Assay [7] has as its target T7, 4H2162-bA.
T7 chain: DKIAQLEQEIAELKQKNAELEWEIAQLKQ
As to the kind of experiment: two-hybrid library CCNG1.

For assay [8], the target named is T8, 4H4073-bN.
T8 chain: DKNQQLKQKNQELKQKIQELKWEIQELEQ
As to the kind of experiment: two-hybrid library CCNG1.

Assay [9] deals with T9, 4H2233-bA.
T9 chain: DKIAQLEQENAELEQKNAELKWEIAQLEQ
As to the kind of experiment: two-hybrid library CCNG1.

Assay [10] deals with T10, 4H2518-bA.
T10 chain: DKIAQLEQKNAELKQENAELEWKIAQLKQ
As to the kind of experiment: two-hybrid library CCNG1.

The target of assay [11] is T11, 4H949-bA.
T11 chain: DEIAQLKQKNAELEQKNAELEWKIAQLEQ
As to the kind of experiment: two-hybrid library CCNG1.

Assay [12] addresses T12, 4H3381-bA.
T12 chain: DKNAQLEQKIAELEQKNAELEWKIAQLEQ
Nature of the assay: two-hybrid library CCNG1.

For assay [13], the target named is T13, 4H166-bA.
T13 chain: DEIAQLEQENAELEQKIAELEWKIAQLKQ
As to the kind of experiment: two-hybrid library CCNG1.

The target in assay [14] is T14, 4H3364-bA.
T14 chain: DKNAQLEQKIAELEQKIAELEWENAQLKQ
As to the kind of experiment: two-hybrid library CCNG1.

Assay [15] concerns the target T15, 4H2760-bA.
T15 chain: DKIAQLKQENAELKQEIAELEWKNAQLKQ
Nature of the assay: two-hybrid library CCNG1.

In assay [16] the target is T16, 4H3297-bA.
T16 chain: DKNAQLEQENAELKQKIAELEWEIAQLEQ
As to the kind of experiment: two-hybrid library CCNG1.

The target in assay [17] is T17, 4H264-bA.
T17 chain: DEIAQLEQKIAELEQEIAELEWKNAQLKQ
As to the kind of experiment: two-hybrid library CCNG1.

Assay [18] has as its target T18, 4H2859-bA.
T18 chain: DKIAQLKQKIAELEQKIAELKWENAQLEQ
Nature of the assay: two-hybrid library CCNG1.

Assay [19] addresses T19, 4H2931-bA.
T19 chain: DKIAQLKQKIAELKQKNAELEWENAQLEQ
As to the kind of experiment: two-hybrid library CCNG1.

The target of assay [20] is T20, 4H235-bA.
T20 chain: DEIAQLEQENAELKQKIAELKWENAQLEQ
Nature of the assay: two-hybrid library CCNG1.

Assay [21] has as its target T21, 4H349-bA.
T21 chain: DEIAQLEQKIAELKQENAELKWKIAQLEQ
As to the kind of experiment: two-hybrid library CCNG1.

Assay [22] addresses T22, 4H2444-bA.
T22 chain: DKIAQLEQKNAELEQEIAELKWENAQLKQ
Nature of the assay: two-hybrid library CCNG1.

In assay [23] the target is T23, 4H3628-bA.
T23 chain: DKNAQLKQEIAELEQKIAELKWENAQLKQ
Nature of the assay: two-hybrid library CCNG1.

Assay [24] concerns the target T24, 4H2585-bA.
T24 chain: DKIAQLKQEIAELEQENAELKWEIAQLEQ
As to the kind of experiment: two-hybrid library CCNG1.

For assay [25], the target named is T25, 4H3041-bA.
T25 chain: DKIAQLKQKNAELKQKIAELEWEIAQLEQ
Nature of the assay: two-hybrid library CCNG1.

Assay [26] deals with T26, 4H796-bA.
T26 chain: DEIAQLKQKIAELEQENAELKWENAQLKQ
As to the kind of experiment: two-hybrid library CCNG1.

The target in assay [27] is T27, 4H56-bA.
T27 chain: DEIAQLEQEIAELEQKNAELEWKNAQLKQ
As to the kind of experiment: two-hybrid library CCNG1.

Assay [28] has as its target T28, 4H2253-bA.
T28 chain: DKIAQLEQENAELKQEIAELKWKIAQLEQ
As to the kind of experiment: two-hybrid library CCNG1.

Assay [29] deals with T29, 4H932-bA.
T29 chain: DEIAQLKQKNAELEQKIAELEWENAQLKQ
As to the kind of experiment: two-hybrid library CCNG1.

In assay [30] the target is T30, 4H2937-bA.
T30 chain: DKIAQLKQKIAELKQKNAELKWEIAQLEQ
Nature of the assay: two-hybrid library CCNG1.

Assay [31] addresses T31, 4H19-bA.
T31 chain: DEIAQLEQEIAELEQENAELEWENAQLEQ
Nature of the assay: two-hybrid library CCNG1.

Assay [32] has as its target T32, 4H491-bA.
T32 chain: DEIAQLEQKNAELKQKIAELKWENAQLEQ
Nature of the assay: two-hybrid library CCNG1.

Assay [33] deals with T33, 4H2883-bA.
T33 chain: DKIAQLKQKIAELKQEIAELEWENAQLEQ
As to the kind of experiment: two-hybrid library CCNG1.

Assay [34] concerns the target T34, 4H48-bA.
T34 chain: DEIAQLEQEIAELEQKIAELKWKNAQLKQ
As to the kind of experiment: two-hybrid library CCNG1.

The target of assay [35] is T35, 4H2696-bA.
T35 chain: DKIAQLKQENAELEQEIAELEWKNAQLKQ
Nature of the assay: two-hybrid library CCNG1.

Assay [36] concerns the target T36, 4H342-bA.
T36 chain: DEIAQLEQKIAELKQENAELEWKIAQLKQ
As to the kind of experiment: two-hybrid library CCNG1.

Assay [37] addresses T37, 4H2944-bA.
T37 chain: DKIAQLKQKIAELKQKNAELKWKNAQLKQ
Nature of the assay: two-hybrid library CCNG1.

On to DENAALEAKIAALKAKIAALKAENAALEG [Core_NIIN-es_EKKE], for which, in assay [1], the interaction score was found to be 2.22.

On to DENAALEAENAALEAKIAALKAENAALEG [Core_NNIN-es_EEKE], for which the interaction score in assay [2] turned out to be 2.2.

On to DENAALEAENAALEAEIAALEAKNAALKG [Core_NNIN-es_EEEK], for which the interaction score in assay [3] came out at 2.07.

As for DEIAALEAEIAALEAKNAALKAENAALEG [Core_IINN-es_EEKE], in [4], the interaction score was determined as 2.21.

In the case of DEIAQLEQENAELEQKIAELEWKIAQLKQ [4H166-bA], the interaction score in assay [5] was -0.818; in assay [6] it was -0.442; in assay [7] it was 0.273; in assay [8] it was 1.76; in [9], 0.472; in [10], 2.14. The interaction score in assay [11] was 0.655; in assay [12], 0.0741; in assay [13], 1.79; in assay [14], -0.668; in assay [15], 1.38; in [16] it was 1.92. Also, the interaction score in assay [17] was 1.18; in assay [18], 1.07; in assay [19], 1.56; in [20], 0.308; in assay [21], -0.678; in assay [22], 0.00294. Also, the interaction score was -0.111 in [23]; -0.344 in assay [24]; 1.54 in assay [25]; -0.288 in assay [26]; -0.289 in assay [27]; 0.212 in [28]. Further, the interaction score in assay [29] is -0.303.

For DEIAQLEQEIAELEQENAELEWENAQLEQ [4H19-bA], the interaction score was 1.86 in assay [30]; -0.446 in assay [31]; -1.22 in assay [32]; -0.0858 in assay [33]; -0.828 in assay [34]; -1.13 in [35]. The interaction score was -0.577 in assay [36] and 2.54 in assay [37].
